Assay results reported in article PMC10977697 (PLOS ONE, 2024).

What was measured:
[1] = molecular target: T1, N2N-AVR-n6; test: SPR; conditions: both partners purified
T1 construct: AVR9 scaffold; source: synthetic peptide, folded in vitro

[2] = molecular target: T2, N2N-AVR-19; test: SPR; conditions: both partners purified
T2 construct: AVR9 scaffold; source: synthetic peptide, folded in vitro

[3] = molecular target: T3, PCSK9 (human, UniProt Q8NBP7 31-692, biotin on lysines (Sulfo-NHS-LC-biotin)); test: ELISA; conditions: one partner purified
T3 construct: also called PCSK9FL; hPCSK9 FL
T3 sequence (Q8NBP7 31-692): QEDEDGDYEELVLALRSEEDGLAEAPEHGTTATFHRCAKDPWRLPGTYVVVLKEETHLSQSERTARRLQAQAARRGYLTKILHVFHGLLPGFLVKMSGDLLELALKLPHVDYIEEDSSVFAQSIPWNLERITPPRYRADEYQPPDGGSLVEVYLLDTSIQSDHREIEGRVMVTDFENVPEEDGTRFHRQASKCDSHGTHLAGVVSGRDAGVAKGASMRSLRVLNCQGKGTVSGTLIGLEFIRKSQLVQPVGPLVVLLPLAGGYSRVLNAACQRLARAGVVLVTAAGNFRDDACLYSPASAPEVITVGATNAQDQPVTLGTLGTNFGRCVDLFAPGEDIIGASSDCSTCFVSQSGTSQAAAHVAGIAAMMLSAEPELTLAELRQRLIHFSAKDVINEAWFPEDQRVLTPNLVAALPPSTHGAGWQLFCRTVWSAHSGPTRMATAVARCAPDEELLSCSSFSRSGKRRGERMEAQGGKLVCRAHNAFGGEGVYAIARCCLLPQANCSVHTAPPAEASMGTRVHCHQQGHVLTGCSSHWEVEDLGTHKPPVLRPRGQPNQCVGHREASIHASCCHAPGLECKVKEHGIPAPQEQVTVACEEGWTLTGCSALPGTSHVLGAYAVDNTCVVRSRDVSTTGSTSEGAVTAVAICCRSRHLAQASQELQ

[4] = molecular target: T4, PCSK9ΔCRD (PCSK9 lacking the C-terminal Cys-rich domain CRD) (human, UniProt Q8NBP7 31-452, biotin on lysines (Sulfo-NHS-LC-biotin)); test: ELISA; conditions: one partner purified
T4 construct: also called PCSK9DCRD; PCSK9dCRDTEV
T4 sequence (Q8NBP7 31-452, stated change not applied): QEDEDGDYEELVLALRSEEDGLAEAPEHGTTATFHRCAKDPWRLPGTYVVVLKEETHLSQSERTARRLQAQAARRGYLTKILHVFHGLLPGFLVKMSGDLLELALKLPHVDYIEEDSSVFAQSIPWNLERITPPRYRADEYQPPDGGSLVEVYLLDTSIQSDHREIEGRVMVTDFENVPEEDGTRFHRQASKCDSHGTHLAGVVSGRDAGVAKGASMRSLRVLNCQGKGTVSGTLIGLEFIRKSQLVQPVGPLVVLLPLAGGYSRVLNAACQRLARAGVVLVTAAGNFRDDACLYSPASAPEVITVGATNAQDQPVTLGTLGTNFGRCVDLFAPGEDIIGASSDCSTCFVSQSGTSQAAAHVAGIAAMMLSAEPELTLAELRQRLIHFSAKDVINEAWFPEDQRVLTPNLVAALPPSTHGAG

B1: Notch2NRR (Notch2 NRR domain) (domain or fragment)
chain: ATCLSQYCADKARDGVCDEACNSHACQWDGGDCSLTMENPWANCSSPLPCWDYINNQCDELCNTVECLFDNFECQGNSKTCKYDKYCADHFKDNHCDQGCNSEECGWDGLDCAADQPENLAEGTLVIVVLMPPEQLLQDARSFLRALGTLLHTNLRIKRDSQGELMVYPYYGEKSAAMKKQRMTRRSLPGEQEQEVAGSKVFLEIDNRQCVQDSDHCFKNTDAAAALLASHAIQGTLSYPLVSVVSESLTPERTQ
modifications: biotin on the N-terminal Avi tag (enzymatic)
notes: also called NRR protein; not shown: Avi tag, N-terminal, kept
- Kd [1]: 0.8 µM
- Kd [2]: 9.4 µM

Binder: GPTQSKYGMCGGIGYSGPTVCASGTTCQVLDPYTSQCLPGAS (designed binder) [PCSK9FL_CBD2 displayed on M13 phage]
- ELISA [3]: 1.9
- s/n Ratio [3]: 26.8

Binder: ECKGKGAKCSFMTRQGVQTWCCTGSCRSGKC (designed binder, Conotoxin-MVIIA scaffold) [PCSK9_CnTx2 displayed on M13 phage]
- ELISA [4]: 1.7
- s/n Ratio [4]: 25.9
